Key:
Assay in all cases: SPR, antibody captured, C2 as analyte;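 further: biacore SPR at 37 °C, anti-C2 mAbs captured via goat anti-human IgG on CM5 chips, double-referenced sensorgrams fit to a 1:1 kinetic or steady-state model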
human C2 V722A = biological target: T1, human C2 V722A (human, UniProt P06681 21-752)
T1 sequence: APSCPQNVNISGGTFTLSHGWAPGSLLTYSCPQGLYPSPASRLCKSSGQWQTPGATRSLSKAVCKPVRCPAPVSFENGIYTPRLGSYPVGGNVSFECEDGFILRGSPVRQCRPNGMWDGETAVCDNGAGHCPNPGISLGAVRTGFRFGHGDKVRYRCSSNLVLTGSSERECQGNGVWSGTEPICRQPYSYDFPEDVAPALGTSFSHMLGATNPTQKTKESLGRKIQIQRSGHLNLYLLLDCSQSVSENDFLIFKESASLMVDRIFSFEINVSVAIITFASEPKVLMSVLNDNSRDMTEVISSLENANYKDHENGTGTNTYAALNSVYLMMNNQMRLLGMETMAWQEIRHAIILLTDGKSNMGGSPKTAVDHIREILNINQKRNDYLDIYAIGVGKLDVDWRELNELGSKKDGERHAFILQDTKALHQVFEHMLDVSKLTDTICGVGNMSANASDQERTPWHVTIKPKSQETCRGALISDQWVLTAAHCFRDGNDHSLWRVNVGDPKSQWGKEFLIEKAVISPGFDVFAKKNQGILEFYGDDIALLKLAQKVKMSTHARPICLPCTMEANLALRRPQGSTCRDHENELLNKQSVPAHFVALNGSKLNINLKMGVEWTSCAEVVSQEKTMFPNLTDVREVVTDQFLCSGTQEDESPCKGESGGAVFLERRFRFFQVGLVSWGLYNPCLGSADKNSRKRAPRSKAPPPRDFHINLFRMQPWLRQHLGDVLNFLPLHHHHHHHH

human C2 R493A = biological target: T2, human C2 R493A (human, UniProt P06681 21-752)
T2 sequence: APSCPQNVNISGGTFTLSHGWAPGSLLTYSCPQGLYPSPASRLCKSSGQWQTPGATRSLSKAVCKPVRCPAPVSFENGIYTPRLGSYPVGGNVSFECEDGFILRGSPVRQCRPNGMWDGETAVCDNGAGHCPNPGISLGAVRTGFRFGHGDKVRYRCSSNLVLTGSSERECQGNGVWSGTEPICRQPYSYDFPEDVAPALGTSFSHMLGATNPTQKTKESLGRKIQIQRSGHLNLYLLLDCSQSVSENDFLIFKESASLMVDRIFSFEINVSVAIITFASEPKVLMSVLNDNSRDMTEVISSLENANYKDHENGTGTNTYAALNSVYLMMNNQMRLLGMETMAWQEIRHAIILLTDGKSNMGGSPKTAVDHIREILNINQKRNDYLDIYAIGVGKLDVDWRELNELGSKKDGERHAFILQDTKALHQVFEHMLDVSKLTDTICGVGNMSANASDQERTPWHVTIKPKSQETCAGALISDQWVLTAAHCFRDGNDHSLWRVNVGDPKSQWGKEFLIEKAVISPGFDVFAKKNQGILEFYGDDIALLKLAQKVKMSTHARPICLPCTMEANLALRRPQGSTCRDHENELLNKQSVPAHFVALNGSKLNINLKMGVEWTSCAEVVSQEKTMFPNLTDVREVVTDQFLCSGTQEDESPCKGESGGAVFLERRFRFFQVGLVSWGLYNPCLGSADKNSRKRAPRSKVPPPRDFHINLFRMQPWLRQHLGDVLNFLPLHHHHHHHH

human C2 D417A = biological target: T3, human C2 D417A (human, UniProt P06681 21-752)
T3 sequence: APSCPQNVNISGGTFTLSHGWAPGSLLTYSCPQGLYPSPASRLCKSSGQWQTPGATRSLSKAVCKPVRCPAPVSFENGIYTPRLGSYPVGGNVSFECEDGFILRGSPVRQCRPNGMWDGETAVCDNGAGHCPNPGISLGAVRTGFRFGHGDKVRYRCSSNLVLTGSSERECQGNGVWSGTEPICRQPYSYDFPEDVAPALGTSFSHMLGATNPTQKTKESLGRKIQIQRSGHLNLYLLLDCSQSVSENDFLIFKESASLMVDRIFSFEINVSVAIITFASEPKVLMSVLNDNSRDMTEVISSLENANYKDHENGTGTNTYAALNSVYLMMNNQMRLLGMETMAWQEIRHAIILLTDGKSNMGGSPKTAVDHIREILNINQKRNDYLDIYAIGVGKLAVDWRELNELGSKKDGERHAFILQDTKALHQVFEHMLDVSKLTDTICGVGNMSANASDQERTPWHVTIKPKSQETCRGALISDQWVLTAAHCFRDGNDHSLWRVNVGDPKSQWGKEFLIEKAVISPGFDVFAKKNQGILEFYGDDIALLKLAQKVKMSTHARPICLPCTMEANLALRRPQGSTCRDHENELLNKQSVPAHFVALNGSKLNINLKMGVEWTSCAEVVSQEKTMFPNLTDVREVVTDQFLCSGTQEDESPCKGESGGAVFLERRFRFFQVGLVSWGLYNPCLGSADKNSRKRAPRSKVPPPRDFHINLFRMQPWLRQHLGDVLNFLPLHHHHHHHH

human C2 R519A = biological target: T4, human C2 R519A (human, UniProt P06681 21-752)
T4 sequence: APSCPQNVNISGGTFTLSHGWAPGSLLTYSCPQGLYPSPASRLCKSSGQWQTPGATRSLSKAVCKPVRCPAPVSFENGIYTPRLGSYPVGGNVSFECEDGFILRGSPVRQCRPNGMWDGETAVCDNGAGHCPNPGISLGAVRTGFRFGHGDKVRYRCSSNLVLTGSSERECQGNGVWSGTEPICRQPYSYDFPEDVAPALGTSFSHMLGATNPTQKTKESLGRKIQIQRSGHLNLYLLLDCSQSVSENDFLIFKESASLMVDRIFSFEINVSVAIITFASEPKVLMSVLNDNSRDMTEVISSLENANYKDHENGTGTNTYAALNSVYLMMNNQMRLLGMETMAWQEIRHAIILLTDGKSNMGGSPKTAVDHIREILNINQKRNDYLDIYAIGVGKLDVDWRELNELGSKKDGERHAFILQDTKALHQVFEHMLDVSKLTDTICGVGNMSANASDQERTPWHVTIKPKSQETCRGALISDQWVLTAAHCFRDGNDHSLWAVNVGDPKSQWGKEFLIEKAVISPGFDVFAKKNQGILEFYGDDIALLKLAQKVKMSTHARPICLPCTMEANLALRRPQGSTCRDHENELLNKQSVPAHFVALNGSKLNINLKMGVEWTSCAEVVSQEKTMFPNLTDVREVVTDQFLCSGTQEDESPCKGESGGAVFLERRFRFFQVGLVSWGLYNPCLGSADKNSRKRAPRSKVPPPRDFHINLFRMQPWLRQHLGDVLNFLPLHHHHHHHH

B1: RF16-226 (antibody, human IgG4 S228P, lambda)
heavy: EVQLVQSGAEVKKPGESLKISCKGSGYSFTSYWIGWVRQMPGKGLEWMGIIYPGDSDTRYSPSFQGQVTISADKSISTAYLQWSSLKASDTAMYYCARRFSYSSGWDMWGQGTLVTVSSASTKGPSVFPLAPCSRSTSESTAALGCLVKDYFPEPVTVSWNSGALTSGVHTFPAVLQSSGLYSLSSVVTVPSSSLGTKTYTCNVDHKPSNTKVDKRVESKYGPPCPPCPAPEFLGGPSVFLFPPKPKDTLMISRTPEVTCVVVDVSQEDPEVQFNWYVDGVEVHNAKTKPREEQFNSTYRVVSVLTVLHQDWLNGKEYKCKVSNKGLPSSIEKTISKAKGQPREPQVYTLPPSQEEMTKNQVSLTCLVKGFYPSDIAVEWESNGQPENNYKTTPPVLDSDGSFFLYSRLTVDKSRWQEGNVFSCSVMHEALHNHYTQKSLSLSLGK
light: SYELTQPPSVSVSPGQTARITCSGDALTSKYVAWYQQKSGLAPLLVIYEDTRRPSGIPAKFSGSSSGSVATLTISGAHGDDEADYYCYSTDASGHQRVFGGGTKLTVLSQPKAAPSVTLFPPSSEELQANKATLVCLISDFYPGAVTVAWKADGSPVKAGVETTKPSKQSNNKYAASSYLSLTPEQWKSHRSYSCQVTHEGSTVEKTVAPTECS
notes: pH-dependent anti-C2 antibody from a phage display library; also called WT
Kd (human C2 V722A): 95.2 nM
Kd (human C2 R493A): 24.3 nM
Kd (human C2 D417A): 17.9 nM
Kd (human C2 R519A): 11.2 nM

Reference: US20220332804A1 (CSL INNOVATION, published 2022)
